Laboratory results reported in PMC5817926.

What was measured:
[1] = molecular target: ubiquitin polyprotein composed of nine identical repeats (Ubi)9 (UniProt P0CG48)
[2] = molecular target: ubiquitin polyprotein composed of nine identical repeats (Ubi)9 (UniProt P0CG48); remark: listed apart in the source
[3] = molecular target: ubiquitin polyprotein composed of nine identical repeats (Ubi)9 (UniProt P0CG48); remark: listed apart in the source
[4] = molecular target: ubiquitin polyprotein composed of nine identical repeats (Ubi)9; test: single-molecule force-clamp spectroscopy (AFM) with a kinetic model fit; (Ubi)9 tethered between gold and cantilever, 5 uM DnaJ in solution; PBS + 5 mM MgCl2 pH 7.4, 22 C; binding to ubiquitin held extended at 170 pN for text 0-30 s, quench 5 s; kon and koff of the extended state as free parameters of the kinetic model
[5] = molecular target: (I27)8 polyprotein of the I27th Ig domain of titin; test: single-molecule force-clamp spectroscopy (AFM) with a kinetic model fit; polyprotein tethered between gold and cantilever, 5 uM chaperone in solution (DnaK with ADP); PBS + 5 mM MgCl2 pH 7.4, 22 C; binding to the collapsed state during the quench at 0 pN (tq 0.5-15 s); constants from a multiparametric fit of the kinetic model to the refolding kinetics
[6] = molecular target: ubiquitin polyprotein composed of nine identical repeats (Ubi)9; test: single-molecule force-clamp spectroscopy (AFM) with a kinetic model fit; (Ubi)9 tethered between gold and cantilever, 5 uM chaperone in solution (DnaK with ADP); PBS + 5 mM MgCl2 pH 7.4, 22 C; binding to ubiquitin mechanically unfolded and held extended at 120 pN; constants from a multiparametric fit of ordinary differential equations to the refolding yields
[7] = molecular target: (I27)8 polyprotein of the I27th Ig domain of titin; test: single-molecule force-clamp spectroscopy (AFM); collapsed (molten globule-like) states: polyprotein tethered between a gold surface and the cantilever tip, unfolded, force quenched for tq 0.5 to 15 s with 5 uM chaperone (DnaK with ADP); refolding yield read in a test pulse; constants from a multiparametric fit of a kinetic model; PBS + 5 mM MgCl2, pH 7.4, 22 C
[8] = molecular target: ubiquitin polyprotein composed of nine identical repeats (Ubi)9 (UniProt P0CG48); test: single-molecule force-clamp spectroscopy (AFM); extended state: polyprotein tethered between a gold surface and the cantilever tip, unfolded and held extended at high force (120 pN; 170 pN for the constants of the extended conformation) for text 1 to 30 s with 5 uM chaperone (DnaK with ADP); refolding yield read in a test pulse after tq = 5 s; constants from a multiparametric fit of a kinetic model; PBS + 5 mM MgCl2, pH 7.4, 22 C
[9] = molecular target: ubiquitin polyprotein composed of nine identical repeats (Ubi)9 (UniProt P0CG48); remark: listed apart in the source
[10] = molecular target: (I27)8 polyprotein of the I27th Ig domain of titin
[11] = molecular target: ubiquitin polyprotein composed of nine identical repeats (Ubi)9 (UniProt P0CG48); test: single-molecule force-clamp spectroscopy (AFM); collapsed (molten globule-like) states: polyprotein tethered between a gold surface and the cantilever tip, unfolded, force quenched for tq 0.5 to 15 s with 5 uM chaperone (DnaK with ADP); refolding yield read in a test pulse; constants from a multiparametric fit of a kinetic model; PBS + 5 mM MgCl2, pH 7.4, 22 C

Chain of DnaK (Hsp70) (P0A6Y8 whole entry): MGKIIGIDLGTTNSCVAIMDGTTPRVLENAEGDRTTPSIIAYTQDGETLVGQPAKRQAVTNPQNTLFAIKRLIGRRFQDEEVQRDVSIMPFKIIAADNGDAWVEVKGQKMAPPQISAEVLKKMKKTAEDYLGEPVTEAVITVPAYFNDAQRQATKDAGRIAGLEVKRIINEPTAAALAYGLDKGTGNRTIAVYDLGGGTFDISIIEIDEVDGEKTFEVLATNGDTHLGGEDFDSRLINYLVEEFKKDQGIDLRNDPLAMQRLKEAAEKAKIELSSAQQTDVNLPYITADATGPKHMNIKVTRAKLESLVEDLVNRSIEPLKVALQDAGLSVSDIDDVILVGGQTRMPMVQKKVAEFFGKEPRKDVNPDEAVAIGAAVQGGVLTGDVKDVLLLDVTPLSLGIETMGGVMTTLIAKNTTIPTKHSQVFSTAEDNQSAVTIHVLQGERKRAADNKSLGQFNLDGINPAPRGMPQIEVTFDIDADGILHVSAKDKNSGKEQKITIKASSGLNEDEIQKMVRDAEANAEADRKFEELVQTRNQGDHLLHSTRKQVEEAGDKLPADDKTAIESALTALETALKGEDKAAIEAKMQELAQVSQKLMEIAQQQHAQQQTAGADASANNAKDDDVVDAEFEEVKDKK
Chain of DnaJ (Hsp40) (P08622 whole entry): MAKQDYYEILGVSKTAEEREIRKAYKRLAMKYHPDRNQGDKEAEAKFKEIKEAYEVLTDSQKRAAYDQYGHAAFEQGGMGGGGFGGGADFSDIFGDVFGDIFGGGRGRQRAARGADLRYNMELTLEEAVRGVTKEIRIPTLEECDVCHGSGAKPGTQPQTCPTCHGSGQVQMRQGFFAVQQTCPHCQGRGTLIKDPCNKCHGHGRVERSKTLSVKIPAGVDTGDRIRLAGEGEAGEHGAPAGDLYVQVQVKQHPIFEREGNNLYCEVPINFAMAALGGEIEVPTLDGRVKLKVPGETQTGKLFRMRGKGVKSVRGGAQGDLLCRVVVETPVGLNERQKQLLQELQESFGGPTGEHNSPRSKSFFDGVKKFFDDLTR

Substance | plateau of the refolding yield of ubiquitin in force-quench trajectories (tq 0.5 to 15 s) with 5 μM DnaJ (~75% without DnaJ) [1] [%] | rate of the exponential decrease of the refolding efficiency of ubiquitin with the time held extended (text 1 to 30 s, tq = 5 s) with 5 μM DnaJ [2] [s⁻¹] | refolding percentage of ubiquitin after 15 s stretched at 50 to 300 pN with DnaJ, tq = 5 s (10% at 150 to 170 pN, ~30% at 300 pN, ~50% at 50 pN) [3] [%] | kon [4] [M⁻¹ s⁻¹] | koff [5] [s⁻¹] | koff [6] [s⁻¹] | kon [6] [M⁻¹ s⁻¹] | Kd [7] [nM] | kon [7] [M⁻¹ s⁻¹] | Kd [8] [nM] | plateau of the refolding yield of ubiquitin in force-quench trajectories (tq 0.5 to 15 s) with 5 μM DnaK(ADP) [9] [%] | refolding yield of I27 with DnaK(ADP) [10] [%] | Kd [11] [nM]
DnaJ (Hsp40) (from UniProt P08622 1-376) (natural protein) | 30 | 0.27 | 50 | 48700 | 0.0472 | 0.0492 | 29900 | 330 | 250000 | 940 | – | – | –
DnaK (Hsp70) (from UniProt P0A6Y8 1-638) (natural protein) | – | – | – | – | 0.029 | – | – | 270 | – | – | 30 | 50 | 140
